Source: paper PMC3163529

Target: recombinant human PKA catalytic subunit Cα2 (human) (UniProt P17612)
Assay: SPR; C subunits amine-coupled to CM5 chip (about 300 RU), R subunits injected at 30 μl/min; 25°C; 20 mM MOPS pH 7, 150 mM NaCl, 1 mM ATP, 5 mM MgCl2, 50 μM EDTA, 0.005% P20; Langmuir 1:1 model; Biacore 2000 or 3000

Kd: 0.9 nM
kon: 900000 M⁻¹ s⁻¹
Substance: recombinant human PKA regulatory subunit RIIβ (from UniProt P31323 1-418) (natural protein; other documents disagree on this pair)
